Experimental data taken from the supplement of paper PMC9112550, “Optimization of the antimicrobial peptide Bac7 by deep mutational scanning” (BMC Biology, 2022).

tested on: Escherichia coli TOP10; test: shrunken log2 fold change of peptide-encoding DNA abundance (4.5 h post-induction vs induction); higher = less antimicrobial activity (less host growth inhibition); settings: time post-induction: 4.5 h; library: site-saturation at positions 5, 18, 19, 20
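Further: peptides expressed intracellularly from a pBAD plasmid library in pooled LB shake-flask culture, induced with 0.3% L-arabinose, DNA abundance read by NGS, three biological replicates, DESeq2 with apeglm shrinkage.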

In order of rising “shrunken log2 fold change” value:
1. RRIRCRPPRLPRPRPRPFHIPRP  -1.96
2. RRIRCRPPRLPRPRPRPCHSPRP  -1.91
3. RRIRCRPPRLPRPRPRPHIMPRP  -1.4
4. RRIRCRPPRLPRPRPRPDYVPRP  -1.26
5. RRIRCRPPRLPRPRPRPDTLPRP  -0.96
6. RRIRCRPPRLPRPRPRPHNKPRP  -0.75
7. RRIRCRPPRLPRPRPRPCIVPRP  -0.718
8. RRIRCRPPRLPRPRPRPCYLPRP  -0.684
9. RRIRCRPPRLPRPRPRPHLNPRP  -0.627
10. RRIRCRPPRLPRPRPRPCMVPRP  -0.587
11. RRIRCRPPRLPRPRPRPATIPRP  -0.55
12. RRIRCRPPRLPRPRPRPFWIPRP  -0.513
13. RRIRCRPPRLPRPRPRPFTPPRP  -0.497
14. RRIRCRPPRLPRPRPRPDVLPRP  -0.489
15. RRIRCRPPRLPRPRPRPAYYPRP  -0.476
16. RRIRCRPPRLPRPRPRPDYQPRP  -0.447
17. RRIRCRPPRLPRPRPRPFGQPRP  -0.442
18. RRIRCRPPRLPRPRPRPGFMPRP  -0.429
19. RRIRCRPPRLPRPRPRPHWHPRP  -0.42
20. RRIRCRPPRLPRPRPRPCWVPRP  -0.4
21. RRIRCRPPRLPRPRPRPCYCPRP  -0.399
22. RRIRCRPPRLPRPRPRPFWCPRP  -0.397
23. RRIRCRPPRLPRPRPRPATYPRP  -0.389
24. RRIRCRPPRLPRPRPRPGHNPRP  -0.385
25. RRIRCRPPRLPRPRPRPHWMPRP  -0.371
26. RRIRCRPPRLPRPRPRPAYCPRP  -0.363
27. RRIRCRPPRLPRPRPRPHMFPRP  -0.348
28. RRIRCRPPRLPRPRPRPGHSPRP  -0.347
29. RRIRCRPPRLPRPRPRPAVSPRP  -0.345
30. RRIRCRPPRLPRPRPRPHELPRP  -0.336
31. RRIRCRPPRLPRPRPRPCHHPRP  -0.332
32. RRIRCRPPRLPRPRPRPHMDPRP  -0.329
33. RRIRCRPPRLPRPRPRPDKCPRP  -0.325
34. RRIRCRPPRLPRPRPRPHYFPRP  -0.324
35. RRIRCRPPRLPRPRPRPFYRPRP  -0.313
36. RRIRCRPPRLPRPRPRPIGHPRP  -0.312
37. RRIRCRPPRLPRPRPRPHWLPRP  -0.311
38. RRIRCRPPRLPRPRPRPFGPPRP  -0.283
39. RRIRCRPPRLPRPRPRPDYAPRP  -0.278
40. RRIRCRPPRLPRPRPRPGFLPRP  -0.245
41. RRIRCRPPRLPRPRPRPFFSPRP  -0.242
42. RRIRCRPPRLPRPRPRPDGMPRP  -0.239
43. RRIRCRPPRLPRPRPRPCYMPRP  -0.234
44. RRIRCRPPRLPRPRPRPDEYPRP  -0.231
45. RRIRCRPPRLPRPRPRPDFCPRP  -0.228
46. RRIRCRPPRLPRPRPRPCNHPRP  -0.227
47. RRIRCRPPRLPRPRPRPCKPPRP  -0.216
48. RRIRCRPPRLPRPRPRPDQIPRP  -0.212
49. RRIRCRPPRLPRPRPRPFSQPRP  -0.209
50. RRIRCRPPRLPRPRPRPHRTPRP  -0.209
51. RRIRCRPPRLPRPRPRPDIYPRP  -0.174
52. RRIRCRPPRLPRPRPRPCEYPRP  -0.163
53. RRIRCRPPRLPRPRPRPFVAPRP  -0.159
54. RRIRCRPPRLPRPRPRPAWTPRP  -0.154
55. RRIRCRPPRLPRPRPRPDERPRP  -0.149
56. RRIRCRPPRLPRPRPRPDNRPRP  -0.132
57. RRIRCRPPRLPRPRPRPEHDPRP  -0.131
58. RRIRCRPPRLPRPRPRPGMNPRP  -0.131
59. RRIRCRPPRLPRPRPRPFRIPRP  -0.128
60. RRIRCRPPRLPRPRPRPGHTPRP  -0.128
61. RRIRCRPPRLPRPRPRPCMWPRP  -0.124
62. RRIRCRPPRLPRPRPRPHRSPRP  -0.114
63. RRIRCRPPRLPRPRPRPFRMPRP  -0.113
64. RRIRCRPPRLPRPRPRPESLPRP  -0.11
65. RRIRCRPPRLPRPRPRPHDDPRP  -0.104
66. RRIRCRPPRLPRPRPRPHSIPRP  -0.101
67. RRIRCRPPRLPRPRPRPFDEPRP  -0.0888
68. RRIRCRPPRLPRPRPRPHHWPRP  -0.0852
69. RRIRCRPPRLPRPRPRPEVIPRP  -0.083
70. RRIRCRPPRLPRPRPRPEKLPRP  -0.077
71. RRIRCRPPRLPRPRPRPFCFPRP  -0.0725
72. RRIRCRPPRLPRPRPRPCPWPRP  -0.0714
73. RRIRCRPPRLPRPRPRPHALPRP  -0.0688
74. RRIRCRPPRLPRPRPRPETMPRP  -0.0663
75. RRIRCRPPRLPRPRPRPGHYPRP  -0.0646
76. RRIRCRPPRLPRPRPRPCVMPRP  -0.0643
77. RRIRCRPPRLPRPRPRPAWMPRP  -0.0623
78. RRIRCRPPRLPRPRPRPEIMPRP  -0.0581
79. RRIRCRPPRLPRPRPRPHMIPRP  -0.0573
80. RRIRCRPPRLPRPRPRPDPWPRP  -0.0438
81. RRIRCRPPRLPRPRPRPDIMPRP  -0.0409
82. RRIRCRPPRLPRPRPRPCDFPRP  -0.0328
83. RRIRCRPPRLPRPRPRPEHFPRP  -0.0319
84. RRIRCRPPRLPRPRPRPEDAPRP  -0.0302
85. RRIRCRPPRLPRPRPRPDCEPRP  -0.0299
86. RRIRCRPPRLPRPRPRPHSQPRP  -0.0293
87. RRIRCRPPRLPRPRPRPCDVPRP  -0.0285
88. RRIRCRPPRLPRPRPRPFPNPRP  -0.0279
89. RRIRCRPPRLPRPRPRPFHTPRP  -0.0266
90. RRIRCRPPRLPRPRPRPHCWPRP  -0.0254
91. RRIRCRPPRLPRPRPRPCNFPRP  -0.0198
92. RRIRCRPPRLPRPRPRPEECPRP  -0.0128
93. RRIRCRPPRLPRPRPRPGHDPRP  -0.00827
94. RRIRCRPPRLPRPRPRPFQNPRP  -0.0078
95. RRIRCRPPRLPRPRPRPDMDPRP  -0.00476
96. RRIRCRPPRLPRPRPRPDECPRP  -0.00243
97. RRIRCRPPRLPRPRPRPIGDPRP  -0.0014
98. RRIRCRPPRLPRPRPRPDQCPRP  -0.00126
99. RRIRCRPPRLPRPRPRPHHCPRP  0.00372
100. RRIRCRPPRLPRPRPRPEMEPRP  0.00408
101. RRIRCRPPRLPRPRPRPCDDPRP  0.0119
102. RRIRCRPPRLPRPRPRPFNDPRP  0.0223
103. RRIRCRPPRLPRPRPRPGQQPRP  0.0269
104. RRIRCRPPRLPRPRPRPGMVPRP  0.0377
105. RRIRCRPPRLPRPRPRPGNWPRP  0.0422
106. RRIRCRPPRLPRPRPRPGDRPRP  0.0429
107. RRIRCRPPRLPRPRPRPAWKPRP  0.0545
108. RRIRCRPPRLPRPRPRPDRFPRP  0.0616
109. RRIRCRPPRLPRPRPRPGEKPRP  0.0653
110. RRIRCRPPRLPRPRPRPGRSPRP  0.0654
111. RRIRCRPPRLPRPRPRPEYPPRP  0.0734
112. RRIRCRPPRLPRPRPRPCTDPRP  0.0806
113. RRIRCRPPRLPRPRPRPGKSPRP  0.0822
114. RRIRCRPPRLPRPRPRPAVHPRP  0.0826
115. RRIRCRPPRLPRPRPRPEQHPRP  0.0913
116. RRIRCRPPRLPRPRPRPARQPRP  0.0993
117. RRIRCRPPRLPRPRPRPCAQPRP  0.101
118. RRIRCRPPRLPRPRPRPDLAPRP  0.102
119. RRIRCRPPRLPRPRPRPCGGPRP  0.113
120. RRIRCRPPRLPRPRPRPGCLPRP  0.115
121. RRIRCRPPRLPRPRPRPENAPRP  0.117
122. RRIRCRPPRLPRPRPRPEHWPRP  0.118
123. RRIRCRPPRLPRPRPRPDFPPRP  0.137
124. RRIRCRPPRLPRPRPRPGTRPRP  0.139
125. RRIRCRPPRLPRPRPRPHWGPRP  0.143
126. RRIRCRPPRLPRPRPRPASGPRP  0.148
127. RRIRCRPPRLPRPRPRPEWTPRP  0.154
128. RRIRCRPPRLPRPRPRPFIEPRP  0.184
129. RRIRCRPPRLPRPRPRPDGPPRP  0.185
130. RRIRCRPPRLPRPRPRPDWPPRP  0.187
131. RRIRCRPPRLPRPRPRPDEPPRP  0.189
132. RRIRCRPPRLPRPRPRPCEEPRP  0.207
133. RRIRCRPPRLPRPRPRPEQAPRP  0.219
134. RRIRCRPPRLPRPRPRPAQMPRP  0.224
135. RRIRCRPPRLPRPRPRPGAEPRP  0.239
136. RRIRCRPPRLPRPRPRPIAEPRP  0.247
137. RRIRCRPPRLPRPRPRPDWWPRP  0.256
138. RRIRCRPPRLPRPRPRPGCDPRP  0.258
139. RRIRCRPPRLPRPRPRPEPDPRP  0.307
140. RRIRCRPPRLPRPRPRPEPGPRP  0.364
141. RRIRCRPPRLPRPRPRPATRPRP  0.366
142. RRIRCRPPRLPRPRPRPEEEPRP  0.375
143. RRIRCRPPRLPRPRPRPECCPRP  0.401
144. RRIRCRPPRLPRPRPRPEANPRP  0.477
145. RRIRCRPPRLPRPRPRPELCPRP  0.488
146. RRIRCRPPRLPRPRPRPGFVPRP  0.528
147. RRIRCRPPRLPRPRPRPECVPRP  0.588
148. RRIRCRPPRLPRPRPRPEEAPRP  0.642
149. RRIRCRPPRLPRPRPRPFVTPRP  0.663
150. RRIRCRPPRLPRPRPRPGDDPRP  0.745
